Results published in US12329806B2, “Compound for modulating rlr, tlr, oas and/or oncostatin m pathways, use thereof for preparing a medicine, composition, method for modulating said pathways and method of treatment” (Instituto Butantan, priority 2018, dated 2025).

System: Equine melanoma tumors
Test: RNA-Seq transcriptomic analysis (DEGs, EdgeR) of treated equine melanoma tumors excised 6 h and 12 h after injection
Format: in vivo, Equus caballus
Details: for SELE expression, average / SELE expression, median: RNA-Seq
Experimental: Equine melanoma tumors were used in experiments with the administration of the compound of the invention, for transcriptomic analysis at different points in time. This translational experiment was carried out at Sao Joaquim Farm (SP) and the samples were transported to the Instituto Butantan, in the city of Sao Paulo. The experiment was designed with non-treated control samples at 0 h (PBS) and the treated tumors were excised 6 h and 12 h after the injection of 1 mg of polypeptide per kg of tumor. For each time point, two tumors were removed from three different animals, producing six tumors per time point. All 18 cDNA libraries were prepared following Illumina's TruSeq® RNA Preparation Kit Kits v2 protocol, and then sequenced using HiSeq 1500 Illumina technology, generating 2×100 bp chain-specific paired readings. The raw sequencing readings had the contaminants removed with bowtie2 2.2.5, and then trimmomatic was used for quality control of the sequences, to cut and remove readings with regions of low complexity and enriched with homopolymers, poly-A/T/N tails, low quality adapter strings and bases, with the fastq-mcf 1.04.662 software. The readings were filtered if more than 90% of the readings correspond to regions of homopolymer or of low complexity. Subsequently, cut if the average quality score was less than 25 in a window size equal to 15. After cutting, all readings less than 40 bp were discarded.
Total RNA was isolated from cells grown with Trizol (Ambion, Life Technologies) and purified with a Mini RNAspin kit (GE Healthcare) according to the manufacturer's instructions, with prolonged treatment with DNase I for 1 h.
RNA quality was assessed with an Agilent 2100 Bioanalyzer RNA Pico assay. RNA was quantified using the Rib-Green Quant-iT and RNA reagent kit (Invitrogen, Life Technologies). The messenger RNA (mRNA) was isolated and used to prepare the complementary DNA (cDNA) libraries following the instructions of the TruSeq RNA Sample Prep Kit V2 (Illumina, San Diego, Calif.). Briefly, the mRNA was isolated with oligo-dT and purified. Then, the mRNA was fragmented by heating to 94° C. (4 min) in fragmentation buffer. The double-stranded cDNA was synthesized, repaired at the end and tail A. The sequencing adapters were then attached to the cDNA fragments, according to the manufacturer's protocol. The cDNA fragments were enriched after 15 rounds of PCR amplification. The quality control of the library was assessed by size distribution of the cDNA libraries measured using 2100 Bioanalyzer with DNA1000 assay (Agilent Technologies) and a StepOnePlus real-time PCR system from ABI were used to quantify the sample library before sequencing. The cDNA library was sequenced on the Illumina HiSeq 1500 System, in a final flow cell paired with Rapid in a 200 pair strategy of 2-101 bp pairing strategy.
The in-silico analysis of RNA-Seq comprises several quality steps and transcriptomic quantification algorithms that are understood in the present invention as “pipeline”. (FIG. 19). The quality check was performed using FastQC3. Hisat214 was used to align readings against the horse's reference genome (Equus caballus) (annotation version 89). To map and quantify transcriptions, the feature Counts was used, resulting in a table of genetic IDs versus samples with raw reading counts. Then, differentially expressed genes (DEGs) were calculated using the EdgeR package. Genes with less than one count per million (CPM) were filtered out. The DEGs were calculated by crossing the sample values of a) 6 h after treatment (6 h)×control (0 h); b) 12 h after treatment (12 h)×control; and also, c) 12 h×6 h. DEGs are defined as an absolute value of log 2 fold change between two groups (LFC)>1 and false discovery rate (FDR)<0.05. […]

[1] = RNA-seq median expression, 12 h

B1: Amblyomin-X: recombinant Kunitz type protein identified in a cDNA library of Amblyomma sculptum tick salivary glands (protein)
chain: MRQLAVLALVIFTGMCVESQSANSKAVCNLPKLAGDETCSNKTEIRWYYNGTACEAFIFKGCGGNDNNFDRVDDCQRLCEEQTHFHFESPKLICFKVQDYWILNDIMKKNLTGISLKSEEEDADSGEID
modifications: Amblyomin-X
notes: recombinant Kunitz type protein identified in a cDNA library of Amblyomma sculptum tick salivary glands
SELE expression, average (6 h after treatment): 7.15 CPM
SELE expression, median (6 h after treatment): 4.56 CPM
SELE expression, average (12 h after treatment): 4.85 CPM
SELE expression, median (12 h after treatment): 5.63 CPM
median2, gene ACTN1 (RNA-seq median expression, 6 h): 153.3001 CPM
median2, gene BCL3 (RNA-seq median expression, 6 h): 46.57 CPM
median2, gene BIRC3 (RNA-seq median expression, 6 h): 47.3192 CPM
median2, gene CAD (RNA-seq median expression, 6 h): 52.82 CPM
median2, gene CCL2 (RNA-seq median expression, 6 h): 171.527 CPM
median2, gene CDO1 (RNA-seq median expression, 6 h): 22.45 CPM
median2, gene CTSL (RNA-seq median expression, 6 h): 34.0817 CPM
median2, gene CXCL6 (RNA-seq median expression, 6 h): 6.189 CPM
median2, gene DDX58 (RNA-seq median expression, 6 h): 22.55 CPM
median2, gene F12 (RNA-seq median expression, 6 h): 4.891 CPM
median2, gene FOSL1 (RNA-seq median expression, 6 h): 14.18 CPM
median2, gene FSCN1 (RNA-seq median expression, 6 h): 97.19 CPM
median2, gene HMOX1 (RNA-seq median expression, 6 h): 99.11 CPM
median2, gene HSPA6 (RNA-seq median expression, 6 h): 15.93 CPM
median2, gene IFI35 (RNA-seq median expression, 6 h): 48.07 CPM
median2, gene IFIH1 (RNA-seq median expression, 6 h): 13.29 CPM
median2, gene IFIT1 (RNA-seq median expression, 6 h): 28.13 CPM
median2, gene IL1B (RNA-seq median expression, 6 h): 20.23 CPM
median2, gene IL1RN (RNA-seq median expression, 6 h): 120.3935 CPM
median2, gene IL13RA1 (RNA-seq median expression, 6 h): 29.3 CPM
median2, gene IRF9 (RNA-seq median expression, 6 h): 72.39 CPM
median2, gene ITGA1 (RNA-seq median expression, 6 h): 7.06 CPM
median2, gene MYH1 (RNA-seq median expression, 6 h): 0 CPM
median2, gene MYH3 (RNA-seq median expression, 6 h): 1.418 CPM
median2, gene MYL2 (RNA-seq median expression, 6 h): 0 CPM
median2, gene MYLPF (RNA-seq median expression, 6 h): 1.314 CPM
median2, gene NTNG1 (RNA-seq median expression, 6 h): 1.059 CPM
median2, gene OAS2 (RNA-seq median expression, 6 h): 34.26 CPM
median2, gene PARP9 (RNA-seq median expression, 6 h): 16.34 CPM
median2, gene PER1 (RNA-seq median expression, 6 h): 32.08 CPM
median2, gene PIK3R6 (RNA-seq median expression, 6 h): 5.162 CPM
median2, gene RUNX1 (RNA-seq median expression, 6 h): 8.949 CPM
median2, gene SAA1 (RNA-seq median expression, 6 h): 7.68 CPM
median2, gene SELP (RNA-seq median expression, 6 h): 22.34 CPM
median2, gene SLPI (RNA-seq median expression, 6 h): 230.2294 CPM
median2, gene SOCS3 (RNA-seq median expression, 6 h): 12.21 CPM
median2, gene STAT1 (RNA-seq median expression, 6 h): 76.48 CPM
median2, gene TAT (RNA-seq median expression, 6 h): 1.235 CPM
median2, gene TEAD4 (RNA-seq median expression, 6 h): 21.64 CPM
median2, gene THBS1 (RNA-seq median expression, 6 h): 43.5 CPM
median2, gene TLR2 (RNA-seq median expression, 6 h): 59.58 CPM
median2, gene TREM1 (RNA-seq median expression, 6 h): 31.36 CPM
median3, gene ACTN1 [1]: 165.3412 CPM
median3, gene BCL3 [1]: 39.97 CPM
median3, gene BIRC3 [1]: 47.38 CPM
median3, gene CAD [1]: 50.34 CPM
median3, gene CCL2 [1]: 418.8519 CPM
median3, gene CDO1 [1]: 12.71 CPM
median3, gene CTSL [1]: 33.8889 CPM
median3, gene CXCL6 [1]: 1.108 CPM
median3, gene DDX58 [1]: 31.9 CPM
median3, gene F12 [1]: 8.671 CPM
median3, gene FOSL1 [1]: 11.46 CPM
median3, gene FSCN1 [1]: 152.3466 CPM
median3, gene HMOX1 [1]: 105.6427 CPM
median3, gene HSPA6 [1]: 53.79 CPM
median3, gene IFI35 [1]: 66.19 CPM
median3, gene IFIH1 [1]: 27.95 CPM
median3, gene IFIT1 [1]: 34.11 CPM
median3, gene IL1B [1]: 10.07 CPM
median3, gene IL1RN [1]: 118.3058 CPM
median3, gene IL13RA1 [1]: 23.98 CPM
median3, gene IRF9 [1]: 85.24 CPM
median3, gene ITGA1 [1]: 6.155 CPM
median3, gene MYH1 [1]: 0 CPM
median3, gene MYH3 [1]: 1.817 CPM
median3, gene MYL2 [1]: 0 CPM
median3, gene MYLPF [1]: 1.629 CPM
median3, gene NTNG1 [1]: 0.744 CPM
median3, gene OAS2 [1]: 82.84 CPM
median3, gene PARP9 [1]: 18.56 CPM
median3, gene PER1 [1]: 39.99 CPM
median3, gene PIK3R6 [1]: 4.433 CPM
median3, gene RUNX1 [1]: 9.266 CPM
median3, gene SAA1 [1]: 11.7 CPM
median3, gene SELP [1]: 20.58 CPM
median3, gene SLPI [1]: 620.7695 CPM
median3, gene SOCS3 [1]: 11.57 CPM
median3, gene STAT1 [1]: 83.64 CPM
median3, gene TAT [1]: 9.52 CPM
median3, gene TEAD4 [1]: 39.12 CPM
median3, gene THBS1 [1]: 31.32 CPM
median3, gene TLR2 [1]: 93.64 CPM
median3, gene TREM1 [1]: 24.25 CPM
logFC6, gene ACTN1 (RNA-seq, 6 h after treatment): 1.003
logFC6, gene BCL3 (RNA-seq, 6 h after treatment): 1.936
logFC6, gene BIRC3 (RNA-seq, 6 h after treatment): 1.275
logFC6, gene CAD (RNA-seq, 6 h after treatment): 1.227
logFC6, gene CCL2 (RNA-seq, 6 h after treatment): 2.79
logFC6, gene CDO1 (RNA-seq, 6 h after treatment): −1.785
logFC6, gene CTSL (RNA-seq, 6 h after treatment): 1.376
logFC6, gene CXCL6 (RNA-seq, 6 h after treatment): 5.945
logFC6, gene DDX58 (RNA-seq, 6 h after treatment): 1.434
logFC6, gene F12 (RNA-seq, 6 h after treatment): 2.559
logFC6, gene FOSL1 (RNA-seq, 6 h after treatment): 4.578
logFC6, gene FSCN1 (RNA-seq, 6 h after treatment): 1.457
logFC6, gene HMOX1 (RNA-seq, 6 h after treatment): 1.443
logFC6, gene HSPA6 (RNA-seq, 6 h after treatment): 5.376
logFC6, gene IFI35 (RNA-seq, 6 h after treatment): 1.513
